Positions count from the first letter of the chain named. Names may count otherwise.
What was measured:
NS3 = NS3 (Hepatitis C virus genotype 1b, UniProt P26663); settings: read-out: affinity for NS3 in solution; cited from earlier work
[1] = target: Biotin-DTEDVVAC …-pY (streptavidin-tagged peptide) (Hepatitis C virus); assay: SPR (BIAcore); 4G10 amine-coupled to the chip, streptavidin-tagged phosphotyrosine peptide injected, regeneration with 2 M MgCl2
[2] = target: T1, 5A/5B (P8P8') substrate DTEDVVCC*SMSYTWTG-K
T1 chain: DTEDVVCCSMYTWTGK

[3] = Size exclusion chromatography (aggregated vs monodispersed form); assay type: physicochemical; settings: for period for which the complex remains monodispersed: 4° C.
Protocol: Two hundred μl of various purified proteins were applied to a calibrated Superdex-75 HR (1 cm×30 cm) FPLC column equilibrated with 25 mM HEPES, pH 7.4, 1M NaCl and 10% glycerol and 10 mM βME at 0.5 ml/min. The column was precalibrated using Pharmacia standard calibration proteins (BSA: 67 KDa; Ovalbumin: 43 KDa; Chymotrypsinogen A: 31 KDa; Ribonuclease A: 13.7 KDa). Protein elution was monitored at 280 nm.

[4] = Solubility judged by achievable concentration of the complex; assay type: physicochemical
Description: Thirteen representative embodiments of such mutant NS4A-NS3 complexes are disclosed in the Examples below. In some embodiments, the isoleucine at position 17 is mutated to lysine. One such mutant form is referred to as His-NS4A21-32-GSGS-NS33-181/I17K (SEQ ID NO: 2). In other embodiments, the same mutation is made at position 18. One such mutant form is referred to as His-NS4A21-32-GSGS-NS33-181/I18K (SEQ ID NO: 3). In yet other embodiments, the mutations are introduced at both positions. One such mutant is referred to as His-NS4A21-32-GSGS-NS33-181/I17K,I18K (SEQ ID NO: 4).
A “soluble” covalent complex as referred to herein is defined as a protein which will remain in solution after a high spin centrifugation step at 300,000×g in a standard ultracentrifuge in a buffer containing 25 mM HEPES, pH 7.6, 10% glycerol, 0.3 M NaCl, 10 mM βME.

[5] = test system: 5A/5B (P8P8′) substrate DTEDVVCC*SMSYTWTG-K; assay: Proteolytic activity by 1D-HPLC (reverse-phase) with 5A/5B substrate; assay type: biochemical, HCV Japanese (1b/BK) strain; settings: for Km / kcat: 5A/5B substrate, room temperature, 60 min, footnote a for His-NS31-181 + NS4A Peptide: [E] = 0.25 μM, [NS4A Peptide] = 10 μM
Protocol: Following expression and purification, newly engineered recombinant species were assayed for proteolytic activity utilizing a 1D-HPLC (reverse-phase chromatography) technique. Assays were conducted using the 5A/5B (P8P8′) substrate DTEDVVCC*SMSYTWTG-K (SEQ ID NO: 25) in 25 mM Tris-HCl pH 7.5, 150 mM NaCl, 0.5 mM EDTA, 10 mM DTT, 10% glycerol, and 0.05% lauryl maltoside. Concentration of all proteins were determined by BIORAD dye method). […] Reactions were incubated at room temperature for 60 minutes and were quenched with an equal volume of 10% phosphoric acid. Following injection, cleavage products were monitored under a linear 0-80% acetonitrile gradient in 0.1% TFA. The product P1′P8′K peak areas were automatically converted to product quantity in nanomoles by a standard curve.
The various covalent NS4A-NS3 complexes whose proteolytic efficiency has been determined according to the above method, and the results of each determination, are shown in Table 1.

[6] = target: T2, His-NS31-181 (NS3 catalytic domain) (Hepatitis C virus (1b/BK strain), UniProt Q9WMX2 1027-1206); assay: cell-based or functional assay
T2 chain: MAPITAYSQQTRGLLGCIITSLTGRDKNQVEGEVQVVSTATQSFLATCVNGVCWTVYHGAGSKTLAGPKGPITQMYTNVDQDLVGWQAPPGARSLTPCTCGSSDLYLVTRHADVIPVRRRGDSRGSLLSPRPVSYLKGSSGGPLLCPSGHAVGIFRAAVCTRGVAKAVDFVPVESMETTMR

[7] = ATPase activity, [a-32P]ATP hydrolysis by thin layer chromatography; assay type: biochemical
Protocol: ATPase activity of the covalent His-NS4A21-32-GSGS-NS33-631 complex (SEQ ID NO: 4) was monitored by direct measurement of [a-^32P]ATP hydrolysis using thin layer chromatography. The enzyme was incubated with 1 mM ATP mixed with [a-^32P]ATP (3000 Ci/mmol, approximately 0.5 mCi per reaction) in a reaction buffer containing 50 mM HEPES [pH 7.3], 10 mM KCl, 0.5 mM DTT, […] bovine serum albumin, fraction V (BSA), 1 mM MgCl2 in the presence or absence of 1 mM polyuridylic acid (poly U) (Pharmacia, Piscataway, N.J.) in a final volume of […]. The reaction was carried out at 37 ∞C. for 1 h and terminated by an addition of […] of 0.5 M EDTA. Half a microliter of the reaction mix was spotted onto a polyethyleneimine-cellulose sheet (SA Scientific Adsorbents Inc., Atlanta, Ga.) and developed by ascending chromatography in 0.375 M potassium phosphate buffer [pH 3.5]. The cellulose sheet was dried and quantified with a Storm 860 PhosphoImager (Molecular Dynamics, Sunnyvale, Calif.).

[8] = test system: double stranded RNA substrate; assay: Nucleic acid unwinding activity, scintillation proximity assay; assay type: biochemical
Protocol: The newly engineered single-chain recombinant His-NS4A21-32-GSGS-NS33-631 (SEQ ID NO: 4) was assayed for nucleic acid unwinding activity using a scintillation proximity assay (SPA, Amersham Life Science Inc., Arlington Height, Ill.). The unwinding activity present in this covalent His-NS4A21-32-GSGS-NS33-631 complex was compared with that of the full length His-NS31-631-NS4A1-54 complex under their corresponding optimal buffer conditions. The double stranded RNA substrate (Oligos, Etc., Inc. Wilsonville, Oreg.) used in the assay contained a template 5′-GCUCGCCCGGGGAUCCUCUAGGAAUACACGUUCGAU-3′ (SEQ ID NO: 121) annealed to a primer 5′-CUAGAGGAUCCCCGGGCGAGCCCUAUAGUGAGUCGU-3′ (complementary sequences of the template and the primer are underlined). This substrate is end-labeled with ^33P using T4 polynucleotide kinase.
The assay conditions for the covalent His-NS4A21-32-GSGS-NS33-631 complex were 100 mM MOPS [pH 7.0], 0.5 mM MgCl2, 2 mM ATP, 0.5 mM DTT, […] BSA, 2% dimethylsulfoxide (DMSO) and 1 U RNase inhibitor (5 prime→3 prime, Inc., Boulder, Colo.). For the full length His-NS31-631/NS4A1-54 complex, the assay conditions were 100 mM PIPES [pH 6.0], 1 mM MgCl2, 2 mM ATP, 0.6 mM DTT, […] BSA and 1 U RNase inhibitor. In both reactions, 0.5 nM double stranded RNA substrate in a final volume of […] was used. The reaction was carried out at 37 ∞C. for 1 h and terminated by an addition of […] of 0.5 M EDTA. The released primer was captured using […] of 100 nM biotinylated capture oligomer (5′-biotin-GCT-CGC-CCG-GGG-ATC-CTC-TAG-3′) (Gibco/BRL, Grand Island, N.Y.) (SEQ ID NO: 123) in 2×hybridization buffer (40 mM HEPES [pH 7.3], 2M NaCl, 2 mg/ml BSA) at 37 ∞C. for 1 h. The primer-oligomer complex was retained by Streptavidin coated SPA beads (SPA, Amersham Life Science Inc., Arlington Height, Ill.), filtered and washed thoroughly with wash buffer (20 mM HEPES [pH 7.3], 15 mM NaCl, 1.5 mM sodium citrate and 0.05% SDS). The amount of the released labeled primer was quantified using a TopCount reader (Packard A991200, Meriden, Conn.).

[9] = target: T3, helicase domain of the NS3 protein (Hepatitis C virus genotype 1b, UniProt P26663, A1092G/F1173S/K1113A/P1112Q); assay: Autocleavage observed during purification; parameters: species or system HCV
T3 construct: N-terminal end of the NS3 protease (NS3 amino acids 3-631) via the linker GSGS; histidine tag followed by a thrombin site (N); made in house; host or cells: E. coli BL21(DE3)
Description: Also provided are NS4A-tethered forms of NS3 full-length domain. […] To prevent autocleavage of the full-length covalent complexes, the catalytic serine residue at position 139 is mutated to alanine. The amino acid sequence of one such embodiment is defined by SEQ ID NO: 15. The mutation of the full length constructs at position 139 can also be made in the NS4A-tethered forms of the NS3 catalytic domain, and can be made in combination with any of the aforementioned mutations to increase solubility and stability while preventing autocleavage. Representative embodiments are set forth in SEQ ID NOs: 5-8, 15-18 and 20.

## NS4A peptide: 13-19 residue NS4A peptide spanning the central hydrophobic domain of the full-length NS4A protein (KKGSVVIVGRIVLSGKPAIIPKK)
NS3
  Kd: 10 µM

## Anti-phosphotyrosine monoclonal antibody 4G10 (Upstate Biotechnology Inc.)
[1]
  % binding of tagged peptide after regeneration: 100%

B1: His-NS4A21-32-GSGS-NS33-181/I17K (protein)
chain: MGSSHHHHHHSSGLVPRGSHMGSVVIVGRIILSGSGSITAYSQQTRGLLGCKITSLTGRDKNQVEGEVQVVSTATQSFLATCVNGVCWTVYHGAGSKTLAGPKGPITQMYTNVDQDLVGWQAPPGARSLTPCTCGSSDLYLVTRHADVIPVRRRGDSRGSLLSPRPVSYLKGSSGGPLLCPSGHAVGIFRAAVCTRGVAKAVDFVPVESMETTMRS
[2]
  Km: 20 µM
  kcat: 0.267 s⁻¹
  kcat/Km: 14000 M⁻¹ s⁻¹
[3]
  dispersion state as judged by size exclusion chromatography: monodispersed
  period for which the complex remains monodispersed: about one week
[4]
  achievable concentration of the complex (solubility): 17 to 20 mg/mL
[5]
  kinetic properties compared with wild type: identical to those of the wild type
  Km: 20 ± 2 µM
  kcat: 0.267 ± 0.05 s⁻¹

B2: His-NS4A21-32-GSGS-NS33-181/I18K (protein)
chain: B1 chain with K52I, I53K
[2]
  Km: 22 µM
  kcat: 0.167 s⁻¹
  kcat/Km: 8000 M⁻¹ s⁻¹
[3]
  dispersion state as judged by size exclusion chromatography: monodispersed
  period for which the complex remains monodispersed: about one week
[4]
  achievable concentration of the complex (solubility): 17 to 20 mg/mL
[5]
  kinetic properties compared with wild type: identical to those of the wild type
  Km: 22 ± 2 µM
  kcat: 0.167 ± 0.033 s⁻¹

## KKGSVVIVGRIVLSGKPAIIPKK [4A peptide KKGSVVIVGRIVLSGKPAIIPKK]
[6]
  catalytic activity relative to full-length NS31-631-NS4A1-54: 8 fold lower

B3: His-NS4A21-32-GSGS-NS33-631: NS4A 21-32 tethered by GSGS to full-length NS3 residues 3-631, His tag; printed SEQ ID NO: 4 (protein)
chain: B1 chain with I53K
modifications: His tag
[7]; 1 mM poly U, all enzyme concentrations examined
  increase of ATP hydrolysis in the presence of poly U: 8-13 fold
[7]; FIG. 7, 1 mM ATP, 37 C, 1 h
  ATPase activity: poly U dependent ATPase activity which was proportional to the concentration of the enzyme
[7]; no poly U
  ATP hydrolysis in the absence of poly U: minimal
[8]
  fold less complex required for similar percentage of unwound products vs full length His-NS31-631/NS4A1-54: 10 fold
[8]; FIG. 6, 37 C, 1 h, 0.5 nM dsRNA
  nucleic acid unwinding activity: proportional to the concentration of enzyme
[8]; linear range of the assay, 1-10 pM enzyme
  product released, fold more than equivalent concentration of full length His-NS3/NS4A1-54 complex: 5-6 fold
[9]
  autocleavage in the helicase domain during purification: a considerable amount of autocleavage

B4: His-NS4A21-32-GSGS-NS33-181/I17K,I18K (protein)
chain: B1 chain with I53K
[3]
  dispersion state as judged by size exclusion chromatography: monodispersed
  period for which the complex remains monodispersed: about one week
[4]
  achievable concentration of the complex (solubility): 17 to 20 mg/mL
[5]
  kinetic properties compared with wild type: identical to those of the wild type
